Data from US20240052061A1 (published 2024).

Tests used:
[1] = biological target: T1, human ecto-nucleoside triphosphate diphosphohydrolase-3 (NTPDase3) (human, UniProt O75355 1-529); assay: flow cytometry; CHO-hENTPD3 cells
T1 chain: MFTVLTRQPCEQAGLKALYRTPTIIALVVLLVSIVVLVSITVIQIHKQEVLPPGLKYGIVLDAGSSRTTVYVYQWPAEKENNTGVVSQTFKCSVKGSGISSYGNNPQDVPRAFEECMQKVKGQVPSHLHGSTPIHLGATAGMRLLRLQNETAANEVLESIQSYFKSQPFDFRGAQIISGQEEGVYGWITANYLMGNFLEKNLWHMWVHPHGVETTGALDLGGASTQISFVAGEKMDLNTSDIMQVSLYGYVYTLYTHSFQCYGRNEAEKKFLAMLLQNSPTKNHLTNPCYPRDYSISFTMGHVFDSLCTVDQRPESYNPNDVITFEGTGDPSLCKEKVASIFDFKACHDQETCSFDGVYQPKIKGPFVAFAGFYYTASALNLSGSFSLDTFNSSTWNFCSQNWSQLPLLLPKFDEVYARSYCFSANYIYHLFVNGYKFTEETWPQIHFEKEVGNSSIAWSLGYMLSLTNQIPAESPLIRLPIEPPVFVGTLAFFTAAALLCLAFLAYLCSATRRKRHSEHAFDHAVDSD

[2] = biological target: T1, human ecto-nucleoside triphosphate …; assay: flow cytometry; COS7-hENTPD3 cells
[3] = biological target: T1, human ecto-nucleoside triphosphate …; assay: flow cytometry; CHO-hENTPD3 cells, 20 min at 4°C
[4] = biological target: T1, human ecto-nucleoside triphosphate …; assay: flow cytometry; HEK293T-hENTPD3 cells
[5] = biological target: T1, human ecto-nucleoside triphosphate …; assay: flow cytometry; CHO-hENTPD3 cells
[6] = biological target: T1, human ecto-nucleoside triphosphate …; assay: flow cytometry; RT4 cells
[7] = biological target: T1, human ecto-nucleoside triphosphate …; assay: flow cytometry; COS7-hENTPD3 cells

Row | Binder | Kd [1] [nM] | Kd [2] [nM] | Kd [3] [nM] | Kd [4] [nM] | Kd [5] [nM] | Kd [6] [nM] | Kd [7] [nM]
1 | PBI #30af8 hIgG1 (antibody, V domains shown) VH: QVQLQESGGGLIQPGGSLRLSCAASGFQSDSSDYAMSWVRQAPGKGLEWVSSISGTGGSTYYADSVKGRFTISRDNSKNTLYVQMTSLTAEDTAVYYCAKVVGFSTYDYYYHYALDVWGQGTTVTVSS VL: QPVLTQPPSASGTPGQRVTISCSGSSSNIGSNTVNWYQQLPGTAPKLLIYSDDQRPSGVPDRFSGSKSGTSASLTISGLKTEDEAGYYCQSYDTSNVVFGGGTKVTVL | 1.8 | 1.26 |  |  |  |  | 
2 | PBI #30af4 hIgG4 (antibody, V domains shown) VH: QVQLQESGGGLIQPGGSLRLSCAASGFTSSSSDYAMSWVRQAPGKGLEWVSSISGSGVSTYYADSVKGRFTISRDNSKNTLYVQMTSLTAEDTAVYYCAKVVGYSVYDYYYHYALDVWGQGTTVTVSS VL: QPVLTQPPSASGTPGQRVTISCSGSSSNIGSNTVNWYQQLPGTAPKLLIYSDNQRPSGVPDRFSGSKSGTSASLTISGLKTEDEAGYYCQSDDTSNVVFGGGTKVTVL | 1.82 | 1.28 |  |  |  |  | 
3 | PBI #30af7 hIgG4 (antibody, V domains shown) VH: QVQLQESGGGLIQPGGSLRLSCAASGFTTSSSDYAMSWVRQAPGKGLEWVSSISGSGGSTYYADSVKGRFTISRDNSKNTLYVQMTSLTAEDTAVYYCAKDVGYSTYDYYYHYALDVWGQGTTVTVSS VL: QPVLTQPPSASGTPGQRVTISCSGSSSNVGSNTVNWYQQLPGTAPKLLIYSNNQRPSGVPDRFSGSKSGTSASLTISGLKTEDEAGYYCQSYDTSNVVFGGGTKVTVL | 2.61 | 2.83 |  |  |  |  | 
4 | PBI #30af7 hIgG1 (antibody, V domains shown) VH: QVQLQESGGGLIQPGGSLRLSCAASGFTTSSSDYAMSWVRQAPGKGLEWVSSISGSGGSTYYADSVKGRFTISRDNSKNTLYVQMTSLTAEDTAVYYCAKDVGYSTYDYYYHYALDVWGQGTTVTVSS VL: QPVLTQPPSASGTPGQRVTISCSGSSSNVGSNTVNWYQQLPGTAPKLLIYSNNQRPSGVPDRFSGSKSGTSASLTISGLKTEDEAGYYCQSYDTSNVVFGGGTKVTVL | 1.87 | 1.68 |  |  |  |  | 
5 | PBI #30af4 hIgG1 (antibody, V domains shown) VH: QVQLQESGGGLIQPGGSLRLSCAASGFTSSSSDYAMSWVRQAPGKGLEWVSSISGSGVSTYYADSVKGRFTISRDNSKNTLYVQMTSLTAEDTAVYYCAKVVGYSVYDYYYHYALDVWGQGTTVTVSS VL: QPVLTQPPSASGTPGQRVTISCSGSSSNIGSNTVNWYQQLPGTAPKLLIYSDNQRPSGVPDRFSGSKSGTSASLTISGLKTEDEAGYYCQSDDTSNVVFGGGTKVTVL | 1.62 | 1.26 |  |  |  |  | 
6 | PBI #30 hIgG1 (antibody, V domains shown) VH: QVQLQESGGGLIQPGGSLRLSCAASGFTSSSSDYAMSWVRQAPGKGLEWVSSISGSGGSTYYADSVKGRFTISRDNSKNTLYVQMTSLTAEDTAVYYCAKVVGYSMYDYYYHYALDVWGQGTTVTVSS VL: QPVLTQPPSASGTPGQRVTISCSGSSSNIGSNTVNWYQQLPGTAPKLLIYSNNQRPSGVPDRFSGSKSGTSASLTISGLKTEDEAGYYCQSYDTSNVVFGGGTKVTVLG | 1.64 |  | 20.9 |  |  |  | 
7 | PBI #30af6 hIgG1 (antibody, V domains shown) VH: QVQLQESGGGLIQPGGSLRLSCAASGFTSSSSDYAMSWVRQAPGKGLEWVSSISGSGGSTYYADSVKGRFTISRDNSKNTLYVQMTSLTAEDTAVYYCAKVFGYSMYDYYYHYALDVWGQGTTVTVSS VL: QPVLTQPPSASGTPGQRITISCSGSSSNIGSNTVNWYQQLPGTAPKLLIYSNNQRPSGVPDRFSGSKSGTSASLTISGLKTEDEAGYYCQSDDTSNVVFGGGTKVTVL | 1.85 | 1.63 |  |  |  |  | 
8 | PBI #30af8 hIgG4 (antibody, V domains shown) VH: QVQLQESGGGLIQPGGSLRLSCAASGFQSDSSDYAMSWVRQAPGKGLEWVSSISGTGGSTYYADSVKGRFTISRDNSKNTLYVQMTSLTAEDTAVYYCAKVVGFSTYDYYYHYALDVWGQGTTVTVSS VL: QPVLTQPPSASGTPGQRVTISCSGSSSNIGSNTVNWYQQLPGTAPKLLIYSDDQRPSGVPDRFSGSKSGTSASLTISGLKTEDEAGYYCQSYDTSNVVFGGGTKVTVL | 1.9 | 1.43 |  |  |  |  | 
9 | PBI #30af6 hIgG4 (antibody, V domains shown) VH: QVQLQESGGGLIQPGGSLRLSCAASGFTSSSSDYAMSWVRQAPGKGLEWVSSISGSGGSTYYADSVKGRFTISRDNSKNTLYVQMTSLTAEDTAVYYCAKVFGYSMYDYYYHYALDVWGQGTTVTVSS VL: QPVLTQPPSASGTPGQRITISCSGSSSNIGSNTVNWYQQLPGTAPKLLIYSNNQRPSGVPDRFSGSKSGTSASLTISGLKTEDEAGYYCQSDDTSNVVFGGGTKVTVL | 2.18 | 1.58 |  |  |  |  | 
10 | 37H1 Hu/Ra (antibody, V domains shown) VH: QSVEESGGRLVTPGTPLTLTCTVSGFSLSSYAVGWVRQAPGKGLEFIGIITYNGATYYASWAEGRFPISKTSSTTVDLKMTSPTTEDTATYFCARARYGGYSTNSYYLNIWGPGTLVTVSS VL: DVVMTQTPASVSAAVGGTVTINCQASENIYRILAWYQQKPGQRPKLLIYGASNLETGVPSRFKGSGSGTEYTLTISDLECDDAATYYCQGVLWNSNDSTFGGGTEVVVKG |  |  |  | 1.4 | 2.26 | 0.16 | 0.54
11 | 42D8 Hu/Ra (antibody, V domains shown) VH: QSVEESGGRLVTPGTPLTLTCTVSGFSLSSYAMGWVRQAPGKGLEFIGIITYNSNTYYANWAKGRFPISKTSSTTVDLKMTSPTTEDTATYFCARARYGGYSTNSYYLNIWGPGTLVTVSS VL: DVVMTQTPASVSAAVGGTVTINCQASENIYRILAWYQQKPGQPPKLLIYGASNLETGVPSRFKGSGSGTEYTLTISDLECDDAATYYCQGVLYNSNDSTFGGGTEVVVKG |  |  |  | 0.55 | 1.96 |  | 0.64
12 | 16D4 Hu/Ra (antibody, V domains shown) VH: QSVEESGGRLVTPGTPLTLTCTVSGFSLSSYAMGWVRQAPGKGLEFIGIITYNGGTYYASWAKGRFPISKTSSTTVDLKMTSPTTEDTATYFCARARYGGYSTNSYYLNIWGPGTLVTVSS VL: DVVMTQTPASVSAAVGGTVTINCQASENIYRVLAWYQQKPGQRPKLLIYGASNLETGVPSRFKGSGSGTEYTLTISDLECDDAATYYCQGVLYDNNDSTFGGGTEVVVKG |  |  |  | 0.38 | 1.94 | 0.2 | 0.8
13 | 4F9 Hu/Ra (antibody, V domains shown) VH: QSVEESGGRLVTPGTPLTLTCTVSGFSLSSYAMGWVRQAPGKGLEFIGIITYNGNTYYASWAKGRFPISKTSSTTVDLKMTSPTTEDTATYFCARARYGGYSTNSYYLNIWGPGTLVTVSS VL: DVVMTQTPASVSAAVGGTVTINCQASENIYRILAWYQQKPGQRPKLLIYGASNLETGVPSRFKGSGSGTEYTLTISDLECDDAATYYCQGVLYNSNDSTFGGGTEVVVKG |  |  |  | 0.46 | 1.52 | 0.19 | 0.45
14 | 44H5 Hu/Ra (antibody, V domains shown) VH: QEQLEESGGDLVKPEGSLTLTCTASGFDSSSTYYMCWVRQAPGKGLEWSGCIYTGGLTYYASWAKGRFTISKTSSTTVTLQMTSLTAADTATYFCASYIGSRFYMPGFSLWGPGTLVTVSS VL: AIVMTQTPSSKSVPVGDTVTINCQASESIYSNNRLAWFQQKPGQPPKLLIYLASTLASGVPSRFKGSGSGTQFTLTISDVVCDDAATYYCAGYKGSSTDGTAFGGGTEVVVKG |  |  |  | 0.15 | 0.95 | 1.15 | 0.3
15 | 3E9 Hu/Ra (antibody, V domains shown) VH: QSLEESGGDLVKPGASLTLTCTASGFSFSSSDWICWVRQAPGKGLEWIACIYAGSIGGAYFASWVNGRFTISRASSTTVTLQMTSLTAADTATYFCARSSSNGRLKLDQFDLWGPGTLVTVSS VL: AYDMTQTPASVEVAVGGTVTINCQASQSIGGWLSWYRQKPGQPPSLLIYKASTLASGVSSRFSGTGSRTHFTLTINGVQCADAATYYCQQGSAADVANTFGGGTEVVVKG |  |  |  | 1.79 | 1.94 |  | 0.63
16 | 38D12 Hu/Ra (antibody, V domains shown) VH: QSVEESGGRLVTPGTPLTLTCTVSGFSLSSYVINWVRQAPGKGLEWIGTISSSGSTYYASWAKGRFTISTTSSTTVDLKITSPTTEDTATYFCARGADGAFISDYFNIWGPGTLVTVSS VL: DIVMTQTPSSVSAAVGGTVTIKCQANENIDSWLAWYQQKPGQRPKLLIYYASTLASGVPSRFKGSGSGTEYTLTISDLECADGATYYCQSYDTISDYGVGFGGGTEVVVKG |  |  |  | 3.06 | 8.3 | 2.63 | 2.8
